Data published in IntAct's records for PubMed 19959993.

B1: Protein RED1 (Saccharomyces cerevisiae), P14291 (parent)
chain: MEGLKKKIFGVCLKNDLAQTRNETKGIHYGLMTLETSKQLQEFLHLLVIKREVIQNFELLFHIINVAVKITDSNLPSDDIWHFILKLRFSSEINIDEDSKVLNYLLETGIAMENPVSWKCLAVISSILSSVPQSKKIITNLIETEHAKKIGQLFDNIQDLQQGNFLVEILSNCFKKSASNSKKVEKIPQLWQSRSKNKFFFENEFYPFSSKNGSLQTCQFLCNNFMSTLSFTGILRQVSYSGSETLKNLRIFKKKDDENSYFIQCIYNKIYLWLDEKAPLEFERKKIRITKNLKNKIQIKLRQPFHECVRTTADKTALLFNKTKGFQLEFEDEKLGETFFHNVNNIPKISEVQNFLVLDYIEEEPENEGEEEEQIGRADEQKEDEEEESLDELSTPMVYPIKSSIPHNHNEKVQLVTPDRSVSIRSDEWDLKSNTEDEEGNVLADLKISSTKETKRQTDYVHIDSEDQSPVVSAQMRKMRRESTKTLEILRQEFKDKDVQNKEDQSEQIQNPFVNTSSLVVGKSCLVNPKEKPNIDQTVVGITELKSNSSIKKRDINILDTIFGQPPSKKQKQFHKKEKKKQQKKLTNFKPIIDVPSQDKRNLRSNAPTKPKSIKVSKLRTDKKVTGEKSSPETAAEKVDDQTVRSNDEQAMSRATKEKCFPDVNEGKEITKDDAKVSLESKKNNETFVDSSVVEKHTPPDKDCNNCNITDILESTTVIDLQSPHGLSAPGQNTFTNKLQEQIYSSINHFSNELVRKISIINQELNKKILKELSEKYQKLFSELQDNFQNDTNEMLKFMGEIKDMMNLPEDQLVHAIRTRKFDNNKR
B2: Synaptonemal complex protein ZIP1 (Saccharomyces cerevisiae), P31111 (parent)
chain: MSNFFRDSSMGFKPRPNIFAKLRVRDVDSDSSANTVVENSSNCLDVGSSIEGDDTFKKPHKTSTEQELITSMSLSQRNHGYSDDMEIGSPKKTTSTDQYNRILKNDVAAIENDTDEDFEITEVREVSEGVAKETKESHGDPNDSETTLKDSKMHEYTMTNGKAPLHTSINNSSTSSNDVLLEAFTNTQRICSNLKQELQKQQQDNAKLKVRLQSYASNSDKINEKVGKYKSCLETLQERIATLTSHKNNQETKLKDLRQNHQLYQRRISGFKTSIENLNKTINDLGKNKKEADAELMKKGKEIEYLKRELDDCSGQLSEEKIKNSSLIQEMGKNREEMIKSIENFFSEDKAHHLLQFNKFEERVHDLFEKKLQKHFDVAKDTLNVGLRNTTVELSSNTETMLKQQYEDIKENLEQKMSSSKDEMAKTINELSVTQKGLIMGVQEELLTSSGNIQTALVSEMNNTRQELLDDASQTAKNYASLENLVKAYKAEIVQSNEYEERIKHLESERSTLSSQKNQIISSLGTKEAQYEDLVKKLEAKNIEISQISGKEQSLTEKNENLSNELKKVQDQLEKLNNLNITTKSNYENKISSQNEIVKALVSENDTLKQRIQQLVEIKENEQKDHTTKLEAFQKNNEQLQKLNVEVVQLKAHELELEEQNRHLKNCLEKKETGVEESLSDVKTLKQQVIVLKSEKQDITAEKLELQDNLESLEEVTKNLQQKVQSQKRELEQKIKELEEIKNHKRNEPSKKGTQNFTKPSDSPKKNATTSNLFPNNSAAIHSPMKKCPKVDHISKSRINSSKETSKFNDEFDLSSSSNDDLELTNPSPIQIKPVRGKIKKGSNCMKPPISSRKKLLLVEDEDQSLKISKKRRRK
partner: B1 chain

Variants of: B1
Details: with smt3_yeast SMT3, Q12306
smt3_yeast SMT3, Q12306, sequence (Q12306 whole entry): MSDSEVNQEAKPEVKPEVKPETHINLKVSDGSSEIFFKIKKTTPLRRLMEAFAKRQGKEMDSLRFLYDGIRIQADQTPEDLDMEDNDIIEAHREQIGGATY

| Variant | effect of a mutation on the interaction |
| --- | --- |
| I758R | decreasing interaction |

Variants of: B1
Details: with smt3_yeast SMT3, Q12306
Remark: another data set of the same source

| Variant | effect of a mutation on the interaction |
| --- | --- |
| S715R | decreasing interaction |
| T717R | decreasing interaction |

Variants of: B2
Details: with red1_yeast RED1, P14291

| Variant | effect of a mutation on the interaction |
| --- | --- |
| E862R | decreasing interaction |
| D863R | decreasing interaction |
| Q864R | decreasing interaction |
